Measured values as given in the supplement of paper PMC9170038.

Tested on: MS2 coat protein
Assay: apparent KD of MS2 coat protein; higher = weaker reporter binding
Settings: Eterna round: R107
Procedure, shortened: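 The buffer was 100 mM Tris-HCl pH 7.5 with 80 mM KCl and 4 mM MgCl2, used without or with constant ligand. In it, RNA switches transcribed on-chip from Illumina sequencing clusters were titrated with SNAP-549-labelled MS2 coat protein in twofold steps from 0.7 or 1.5 nM to 3 µM. Apparent KD for each design is the median of its normalised cluster binding-curve fits.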

[1] = input ligand: theophylline 20 uM
[2] = input ligand: theophylline 2 mM
[3] = input ligand: tryptophan 2.4 mM

Sequence | apparent KD of MS2 coat protein (input ligand: arginine 13.2 mM) [nM] | apparent KD of MS2 coat protein (input ligand: none) [nM] | apparent KD of MS2 coat protein [1] [nM] | apparent KD of MS2 coat protein [2] [nM] | apparent KD of MS2 coat protein [3] [nM]
AGGACGGUCGGAAGGAGCGGUACAUGAGGAUCACCCAUGUAUUCCUGGGCAUCCGUAGUGUGCCAGGUAGGUCGCCGAUUGCGGG [XArg-B7] | 57.6 | 32.7 | 109 | 103 | 64.8
ACAUGAGGAUCACCCAUGUGAAGCAGGGUACGAGGACCGGUACGGCCGCCACUCGAGCAUUAUAACGAGUGAAUGGCAACGAUGU [whbob_Ex_trypto A_2s16] | 11.7 | 12.4 | 19 | 17.4 | 12.8
ACAUGAGGAUCACCCAUGUAUGACUAUCCUCGAGGACCGGUACGGCCGCCACUCGAACGAGUGGCUCGCGAGUGCGCACUUGCGA [5' end] | 16.7 | 13.2 | 16.7 | 12.7 | 11.9
GUACAUGAGGAUCACCCAUGUAUAGUUGAAGGAGCGACCAGAGGGUCAGGUAGGUCGCAGCACAUGAGGUAAGCCCGUGUAUGCU [#1 Exclusion - Arginine A Attempt #19 (Inspired by Pi)] | 30.7 | 50.6 | 59.1 | 35.1 | 32
GCCUCAUGUAGAAGGAGCGUCAGAAGCUACAGACAUGAGGAUCACCCAUGUUAGUUGAUCUGACAGGUAGGUCGCUACAGCAGGA [Arg B SS t7] | 26.7 | 37 | 44.9 | 41.1 | 34.9
CGGCCCUCACCUGAGGAACACCCAGGUGAUACCAGCCUGGAAACAGGCCCUUGGCAGCACCAGGUCAUCAAAGAUGACCAAGCCG [TheoAX 24 #SwitchBubble #AlternativeMS2] | 20.8 | 20.1 | 28.7 | 171 | 19.2
UAUCGUCAGACGGCCGCCACUAGAACAUGAGGAUCACCCAUGUACCCGGUCCAUUCCUCAUUAACUAGGACCGGGUCUGACGAAU [(Trp1)-(Ms2)-(T)'-(M)'-(Trp2)_Design13] | 88.3 |  | 129 | 131 | 
ACAUGAGGGCGAAGGAGCGCGAACAUGAGGAUCACCCAUGUCUAUAUCCGUCCGCAUGUAUCGCAGGUAGGUCGCGCUGUUACUU [#13 Exclusion - Arginine B] | 8.99 | 8.6 | 11.4 | 8.5 | 8.52
UGACGAUACCUGGAUACCAGCGACAUGAGGAUCACCCAUGUAUGAGGAUCAGCCAUGAUAUGCCCUUGGCAGCCACGAAAGUCUU [VUVMULLIN] | 16.8 | 15.8 | 27.5 | 150 | 18.6
CAAUUUAUAUGAAGGAGCGUCGAAAAUGGGUAAACAUGAGGAUCACCCAUGUAAAGGGAACGACAGGUAGGUCGCAUAUGGAUUG [AstromonsSSArgB#10] | 123 | 180 | 234 | 316 | 182
GGCUCCAGCCGAAGGAGCGCUAGAAGGUGACAUGAGGAUCACCCAUGUGUGUGAUGUGGCUAGCAGGUAGGUCGCGGAGGAGCUU [Exclusion - Arginine B (Freestyle 19)] | 62.5 | 64.5 | 108 | 90.6 | 71.1
AAAUAAAUAACUGAUACCAGUGUACUGACAUGAGGAUCACCCAUGUUGGGUUUUGUUGUACACCCUUGGCAGCAGAAAUAUAAAA [AstrosExyTheB#1] | 28.7 |  | 41.2 |  | 37.9
UGUGGGUCCGAAGAUACCAGCCAGCACAGCAUGUGUUUAAACAUGAGGAUCACCCAUGUCGGCCCUUGGCAGCUUGGUUUGGACG [theeternabot_exclusion_MS2_Theo_B_7] | 15.5 |  | 19.8 |  | 15.8
UGUAACAUGAGGAUCACCCAUGUGAGUGAUACCAGAUUAGUAUUAGUCCCUUGGCAGCACGUUGGGCGAGUGUAUAGUCUAUGCG [Same State - Theophylline A (Freestyle 13)] | 90.9 |  | 162 |  | 
UACAUAUGCCGAAGGAGCGCGAGAAGCAAAGCUUCAUUCCUCACAUGAGGAUCACCCAUGUCGCAGGUAGGUCGCGGCAUAUGUU [#15 Exclusion - Arginine B] | 23.7 | 21.8 | 42 | 28.2 | 24
AGCGCAGGUCCUGAUACCAGAGACAUGAGGAUCACCCAUGUCCGGUGGUCCUGCCACAGGCUCCCUUGGCAGCAGGGCUUGUGCU [Exclusion Theophylline B GF9] | 31.4 | 28.7 | 40.8 | 60.5 | 29.1
CUGGACAUGAGGAUCACCCAUGUAAAUCCUCGAGGACCGGUACGGCCGCCACUCGAACGAGUGGCGCGCGAGCGCGCGCUCGCGC [aJa] | 41.4 | 43.3 | 80.3 | 62.5 | 45.5
